Consider 7 molecules from US20230395193A1 (priority 2020, published 2023).

First the molecules themselves.
B1: M-Q9UKV5 (protein, UniProt Q9UKV5 1-643, looked up)
E3 ubiquitin-protein ligase …: MPLLFLERFPWPSLRTYTGLSGLALLGTIISAYRALSQPEAGPGEPDQLTASLQPEPPAPARPSAGGPRARDVAQYLLSDSLFVWVLVNTACCVLMLVAKLIQCIVFGPLRVSERQHLKDKFWNFIFYKFIFIFGVLNVQTVEEVVMWCLWFAGLVFLHLMVQLCKDRFEYLSFSPTTPMSSHGRVLSLLVAMLLSCCGLAAVCSITGYTHGMHTLAFMAAESLLVTVRTAHVILRYVIHLWDLNHEGTWEGKGTYVYYTDFVMELTLLSLDLMHHIHMLLFGNIWLSMASLVIFMQLRYLFHEVQRRIRRHKNYLRVVGNMEARFAVATPEELAVNNDDCAICWDSMQAARKLPCGHLFHNSCLRSWLEQDTSCPTCRMSLNIADNNRVREEHQGENLDENLVPVAAAEGRPRLNQHNHFFHFDGSRIASWLPSFSVEVMHTTNILGITQASNSQLNAMAHQIQEMFPQVPYHLVLQDLQLTRSVEITTDNILEGRIQVPFPTQRSDSIRPALNSPVERPSSDQEEGETSAQTERVPLDLSPRLEETLDFGEVEVEPSEVEDFEARGSRFSKSADERQRMLVQRKDELLQQARKRFLNKSSEDDAASESFLPSEGASSDPVTLRRRMLAAAAERRLQKQQTS
B2: M-Q9ULX6 (protein, UniProt Q9ULX6 1-646, looked up)
A-kinase anchor protein 8-like: MSYTGFVQGSETTLQSTYSDTSAQPTCDYGYGTWNSGTNRGYEGYGYGYGYGQDNTTNYGYGMATSHSWEMPSSDTNANTSASGSASADSVLSRINQRLDMVPHLETDMMQGGVYGSGGERYDSYESCDSRAVLSERDLYRSGYDYSELDPEMEMAYEGQYDAYRDQFRMRGNDTFGPRAQGWARDARSGRPMASGYGRMWEDPMGARGQCMSGASRLPSLFSQNIIPEYGMFQGMRGGGAFPGGSRFGFGFGNGMKQMRRTWKTWTTADFRTKKKKRKQGGSPDEPDSKATRTDCSDNSDSDNDEGTEGEATEGLEGTEAVEKGSRVDGEDEEGKEDGREEGKEDPEKGALTTQDENGQTKRKLQAGKKSQDKQKKRQRDRMVERIQFVCSLCKYRTFYEDEMASHLDSKFHKEHFKYVGTKLPKQTADFLQEYVTNKTKKTEELRKTVEDLDGLIQQIYRDQDLTQEIAMEHFVKKVEAAHCAACDLFIPMQFGIIQKHLKTMDHNRNRRLMMEQSKKSSLMVARSILNNKLISKKLERYLKGENPFTDSPEEEKEQEEAEGGALDEGAQGEAAGISEGAEGVPAQPPVPPEPAPGAVSPPPPPPPEEEEEGAVPLLGGALQRQIRGIPGLDVEDDEEGGGGAP
B3: E-Q6DD88 (protein, UniProt Q6DD88 1-541, looked up)
Atlastin-3: MLSPQRVAAAASRGADDAMESSKPGPVQVVLVQKDQHSFELDEKALASILLQDHIRDLDVVVVSVAGAFRKGKSFILDFMLRYLYSQKESGHSNWLGDPEEPLTGFSWRGGSDPETTGIQIWSEVFTVEKPGGKKVAVVLMDTQGAFDSQSTVKDCATIFALSTMTSSVQIYNLSQNIQEDDLQQLQLFTEYGRLAMDEIFQKPFQTLMFLVRDWSFPYEYSYGLQGGMAFLDKRLQVKEHQHEEIQNVRNHIHSCFSDVTCFLLPHPGLQVATSPDFDGKLKDIAGEFKEQLQALIPYVLNPSKLMEKEINGSKVTCRGLLEYFKAYIKIYQGEDLPHPKSMLQATAEANNLAAAASAKDIYYNNMEEVCGGEKPYLSPDILEEKHCEFKQLALDHFKKTKKMGGKDFSFRYQQELEEEIKELYENFCKHNGSKNVFSTFRTPAVLFTGIVALYIASGLTGFIGLEVVAQLFNCMVGLLLIALLTWGYIRYSGQYRELGGAIDFGAAYVLEQASSHIGNSTQATVRDAVVGRPSMDKKAQ
modifications: interactor of SARS-CoV-2 E
B4: M-Q9ULF5 (protein, UniProt Q9ULF5 26-831, looked up)
Zinc transporter ZIP10: HEEHDHGPEALHRQHRGMTELEPSKFSKQAAENEKKYYIEKLFERYGENGRLSFFGLEKLLTNLGLGERKVVEINHEDLGHDHVSHLDILAVQEGKHFHSHNHQHSHNHLNSENQTVTSVSTKRNHKCDPEKETVEVSVKSDDKHMHDHNHRLRHHHRLHHHLDHNNTHHFHNDSITPSERGEPSNEPSTETNKTQEQSDVKLPKGKRKKKGRKSNENSEVITPGFPPNHDQGEQYEHNRVHKPDRVHNPGHSHVHLPERNGHDPGRGHQDLDPDNEGELRHTRKREAPHVKNNAIISLRKDLNEDDHHHECLNVTQLLKYYGHGANSPISTDLFTYLCPALLYQIDSRLCIEHFDKLLVEDINKDKNLVPEDEANIGASAWICGIISITVISLLSLLGVILVPIINQGCFKFLLTFLVALAVGTMSGDALLHLLPHSQGGHDHSHQHAHGHGHSHGHESNKFLEEYDAVLKGLVALGGIYLLFIIEHCIRMFKHYKQQRGKQKWFMKQNTEESTIGRKLSDHKLNNTPDSDWLQLKPLAGTDDSVVSEDRLNETELTDLEGQQESPPKNYLCIEEEKIIDHSHSDGLHTIHEHDLHAAAHNHHGENKTVLRKHNHQWHHKHSHHSHGPCHSGSDLKETGIANIAWMVIMGDGIHNFSDGLAIGAAFSAGLTGGISTSIAVFCHELPHELGDFAVLLKAGMTVKQAIVYNLLSAMMAYIGMLIGTAVGQYANNITLWIFAVTAGMFLYVALVDMLPEMLHGDGDNEEHGFCPVGQFILQNLGLLFGFAIMLVIALYEDKIVFDIQF
B5: E-Q6UX04 (protein, UniProt Q6UX04 2-472, looked up)
Spliceosome-associated …: SNIYIQEPPTNGKVLLKTTAGDIDIELWSKEAPKACRNFIQLCLEAYYDNTIFHRVVPGFIVQGGDPTGTGSGGESIYGAPFKDEFHSRLRFNRRGLVAMANAGSHDNGSQFFFTLGRADELNNKHTIFGKVTGDTVYNMLRLSEVDIDDDERPHNPHKIKSCEVLFNPFDDIIPREIKRLKKEKPEEEVKKLKPKGTKNFSLLSFGEEAEEEEEEVNRVSQSMKGKSKSSHDLLKDDPHLSSVPVVESEKGDAPDLVDDGEDESAEHDEYIDGDEKNLMRERIAKKLKKDTSANVKSAGEGEVEKKSVSRSEELRKEARQLKRELLAAKQKKVENAAKQAEKRSEEEEAPPDGAVAEYRREKQKYEALRKQQSKKGTSREDQTLALLNQFKSKLTQAIAETPENDIPETEVEDDEGWMSHVLQFEDKSRKVKDASMQDSDTFEIYDPRNPVNKRRREESKKLMREKKERR
modifications: interactor of E protein
B6: M-Q9UI26 (protein, UniProt Q9UI26 1-975, looked up)
Importin-11: MDLNSASTVVLQVLTQATSQDTAVLKPAEEQLKQWETQPGFYSVLLNIFTNHTLDINVRWLAVLYFKHGIDRYWRRVAPHALSEEEKTTLRAGLITNFNEPINQIATQIAVLIAKVARLDCPRQWPELIPTLIESVKVQDDLRQHRALLTFYHVTKTLASKRLAADRKLFYDLASGIYNFACSLWNHHTDTFLQEVSSGNEAAILSSLERTLLSLKVLRKLTVNGFVEPHKNMEVMGFLHGIFERLKQFLECSRSIGTDNVCRDRLEKTIILFTKVLLDFLDQHPFSFTPLIQRSLEFSVSYVFTEVGEGVTFERFIVQCMNLIKMIVKNYAYKPSKNFEDSSPETLEAHKIKMAFFTYPTLTEICRRLVSHYFLLTEEELTMWEEDPEGFTVEETGGDSWKYSLRPCTEVLFIDIFHEYNQTLTPVLLEMMQTLQGPTNVEDMNALLIKDAVYNAVGLAAYELFDSVDFDQWFKNQLLPELQVIHNRYKPLRRRVIWLIGQWISVKFKSDLRPMLYEAICNLLQDQDLVVRIETATTLKLTVDDFEFRTDQFLPYLETMFTLLFQLLQQVTECDTKMHVLHVLSCVIERVNMQIRPYVGCLVQYLPLLWKQSEEHNMLRCAILTTLIHLVQGLGADSKNLYPFLLPVIQLSTDVSQPPHVYLLEDGLELWLVTLENSPCITPELLRIFQNMSPLLELSSENLRTCFKIINGYIFLSSTEFLQTYAVGLCQSFCELLKEITTEGQVQVLKVVENALKVNPILGPQMFQPILPYVFKGIIEGERYPVVMSTYLGVMGRVLLQNTSFFSSLLNEMAHKFNQEMDQLLGNMIEMWVDRMDNITQPERRKLSALALLSLLPSDNSVIQDKFCGIINISVEGLHDVMTEDPETGTYKDCMLMSHLEEPKVTEDEEPPTEQDKRKKMLALKDPVHTVSLQQFIYEKLKAQQEMLGEQGFQSLMETVDTEIVTQLQEFLQGF
modifications: interactor of M protein
B7: E-Q8IWA5 (protein, UniProt Q8IWA5 1-706, looked up)
Choline transporter-like …: MGDERPHYYGKHGTPQKYDPTFKGPIYNRGCTDIICCVFLLLAIVGYVAVGIIAWTHGDPRKVIYPTDSRGEFCGQKGTKNENKPYLFYFNIVKCASPLVLLEFQCPTPQICVEKCPDRYLTYLNARSSRDFEYYKQFCVPGFKNNKGVAEVLQDGDCPAVLIPSKPLARRCFPAIHAYKGVLMVGNETTYEDGHGSRKNITDLVEGAKKANGVLEARQLAMRIFEDYTVSWYWIIIGLVIAMAMSLLFIILLRFLAGIMVWVMIIMVILVLGYGIFHCYMEYSRLRGEAGSDVSLVDLGFQTDFRVYLHLRQTWLAFMIILSILEVIIILLLIFLRKRILIAIALIKEASRAVGYVMCSLLYPLVTFFLLCLCIAYWASTAVFLSTSNEAVYKIFDDSPCPFTAKTCNPETFPSSNESRQCPNARCQFAFYGGESGYHRALLGLQIFNAFMFFWLANFVLALGQVTLAGAFASYYWALRKPDDLPAFPLFSAFGRALRYHTGSLAFGALILAIVQIIRVILEYLDQRLKAAENKFAKCLMTCLKCCFWCLEKFIKFLNRNAYIMIAIYGTNFCTSARNAFFLLMRNIIRVAVLDKVTDFLFLLGKLLIVGSVGILAFFFFTHRIRIVQDTAPPLNYYWVPILTVIVGSYLIAHGFFSVYGMCVDTLFLCFLEDLERNDGSAERPYFMSSTLKKLLNKTNKKAAES

For the assay, the system named is SARS-CoV-1, MERS-CoV and SARS-CoV-2 proteins in HEK293T cells. Further details: species or system human.
In the case of B1, the MIST_MERS came to 0.2719, the MIST_SARS1 turned out to be 0.9871, the MIST_SARS2 is 0.04352 and the Saint_MERS is recorded as 0. The same molecule returned a Saint_SARS1 of 1 and a Saint_SARS2 of 1.

Molecule B2 displayed an MIST_MERS of 0, an MIST_SARS1 of 0.34, an MIST_SARS2 of 0.752 and a Saint_MERS of 0. This molecule also yielded a Saint_SARS1 of 0.98 and a Saint_SARS2 of 1.

The molecule B3 displayed an MIST_MERS of 0.9832, an MIST_SARS1 of 0, an MIST_SARS2 of 0 and a Saint_MERS of 1. In addition, the Saint_SARS1 was 0 and the Saint_SARS2 is given as 0.

In turn, B4 returned an MIST_MERS of 0, an MIST_SARS1 of 0.7375, an MIST_SARS2 of 0 and a Saint_MERS of 0. This molecule also displayed a Saint_SARS1 of 1 and a Saint_SARS2 of 0.

B5: the MIST_MERS worked out at 0.03892, the MIST_SARS1 is on record as 0.6535, the MIST_SARS2 is 0.8931 and the Saint_MERS is given as 0. The molecule also displayed a Saint_SARS1 of 0.98 and a Saint_SARS2 of 0.66.

B6 showed an MIST_MERS of 0.9937, an MIST_SARS1 of 0.6822, an MIST_SARS2 of 0.6494 and a Saint_MERS of 0.99. The Saint_SARS1 came out at 1 and the Saint_SARS2 amounted to 1.

B7 displayed an MIST_MERS of 0, an MIST_SARS1 of 0, an MIST_SARS2 of 0.9503 and a Saint_MERS of 0. The Saint_SARS1 is recorded as 0 and the Saint_SARS2 is recorded as 0.98.
